Experimental data taken from PMC2749287.

B1: wild-type VDRE2 probe, hCYP24A1 promoter (dsDNA)
DNA 1: CGAAGCACACCCGGTGAACTCCGGGCTT
DNA 2: AAGCCCGGAGTTCACCGGGTGTGCTTCG
B2: unlabeled wild-type VDRE2 competitor (dsDNA)
DNA 1: CGAAGCACACCCGGTGAACTCCGGGCTT
DNA 2: AAGCCCGGAGTTCACCGGGTGTGCTTCG

Assays:
VDR;RXRα [1] = biological target: T1, VDR;RXRα (human;human, UniProt P11473;P19793 1-427;1-462, |); assay: EMSA
VDR;RXRα [2] = biological target: T1, VDR;RXRα; assay: competition

T1 sequence (P11473 whole entry, chain 1 of 2): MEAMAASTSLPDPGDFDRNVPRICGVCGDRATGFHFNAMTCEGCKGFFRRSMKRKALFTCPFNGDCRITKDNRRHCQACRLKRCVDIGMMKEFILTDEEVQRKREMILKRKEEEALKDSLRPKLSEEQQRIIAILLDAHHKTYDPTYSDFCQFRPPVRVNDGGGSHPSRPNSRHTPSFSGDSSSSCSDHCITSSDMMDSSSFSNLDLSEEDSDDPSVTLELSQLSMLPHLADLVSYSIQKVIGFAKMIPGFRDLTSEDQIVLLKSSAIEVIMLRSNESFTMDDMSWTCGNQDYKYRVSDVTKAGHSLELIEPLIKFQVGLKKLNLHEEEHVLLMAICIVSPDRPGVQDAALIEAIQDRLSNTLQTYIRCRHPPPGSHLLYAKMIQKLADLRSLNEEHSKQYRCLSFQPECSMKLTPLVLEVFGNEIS
T1 sequence (P19793 whole entry, chain 2 of 2): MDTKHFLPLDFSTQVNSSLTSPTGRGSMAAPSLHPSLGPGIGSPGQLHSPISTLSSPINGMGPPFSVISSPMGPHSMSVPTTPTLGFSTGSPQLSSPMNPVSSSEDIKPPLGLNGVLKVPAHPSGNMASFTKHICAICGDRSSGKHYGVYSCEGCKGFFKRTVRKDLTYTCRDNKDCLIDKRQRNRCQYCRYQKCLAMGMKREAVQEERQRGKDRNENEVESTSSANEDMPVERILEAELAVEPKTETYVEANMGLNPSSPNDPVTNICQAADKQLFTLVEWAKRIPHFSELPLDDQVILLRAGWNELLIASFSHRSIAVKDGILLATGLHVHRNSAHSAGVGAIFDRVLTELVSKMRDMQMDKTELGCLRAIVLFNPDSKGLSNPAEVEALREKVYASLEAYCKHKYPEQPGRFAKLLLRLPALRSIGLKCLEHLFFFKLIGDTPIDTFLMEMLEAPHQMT

Binder	binding result (VDR;RXRα [1])	binding result (VDR;RXRα [2])
B1	binds	
B2		binds
